# Measurements from publication PMC3877758 (2013).
# T1: eIF2 (yeast (Saccharomyces cerevisiae), UniProt P20459 1-304; P09064 1-285; P32481 1-527)
# T1 chain 1: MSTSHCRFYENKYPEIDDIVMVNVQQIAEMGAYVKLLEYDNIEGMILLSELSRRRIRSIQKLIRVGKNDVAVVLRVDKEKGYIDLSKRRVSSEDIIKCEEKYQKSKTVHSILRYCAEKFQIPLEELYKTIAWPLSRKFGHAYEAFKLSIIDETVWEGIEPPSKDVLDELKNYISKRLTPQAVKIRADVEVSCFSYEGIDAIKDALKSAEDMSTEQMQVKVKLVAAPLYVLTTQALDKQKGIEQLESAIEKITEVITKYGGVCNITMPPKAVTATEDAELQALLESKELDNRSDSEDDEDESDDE
# T1 chain 2: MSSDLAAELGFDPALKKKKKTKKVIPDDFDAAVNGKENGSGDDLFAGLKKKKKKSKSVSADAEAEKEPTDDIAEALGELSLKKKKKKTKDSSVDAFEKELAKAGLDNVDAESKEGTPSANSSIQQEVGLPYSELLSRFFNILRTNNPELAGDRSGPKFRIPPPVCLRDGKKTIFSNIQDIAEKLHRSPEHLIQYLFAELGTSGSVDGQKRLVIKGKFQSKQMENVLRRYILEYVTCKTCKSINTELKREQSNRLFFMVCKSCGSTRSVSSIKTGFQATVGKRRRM
# T1 chain 3: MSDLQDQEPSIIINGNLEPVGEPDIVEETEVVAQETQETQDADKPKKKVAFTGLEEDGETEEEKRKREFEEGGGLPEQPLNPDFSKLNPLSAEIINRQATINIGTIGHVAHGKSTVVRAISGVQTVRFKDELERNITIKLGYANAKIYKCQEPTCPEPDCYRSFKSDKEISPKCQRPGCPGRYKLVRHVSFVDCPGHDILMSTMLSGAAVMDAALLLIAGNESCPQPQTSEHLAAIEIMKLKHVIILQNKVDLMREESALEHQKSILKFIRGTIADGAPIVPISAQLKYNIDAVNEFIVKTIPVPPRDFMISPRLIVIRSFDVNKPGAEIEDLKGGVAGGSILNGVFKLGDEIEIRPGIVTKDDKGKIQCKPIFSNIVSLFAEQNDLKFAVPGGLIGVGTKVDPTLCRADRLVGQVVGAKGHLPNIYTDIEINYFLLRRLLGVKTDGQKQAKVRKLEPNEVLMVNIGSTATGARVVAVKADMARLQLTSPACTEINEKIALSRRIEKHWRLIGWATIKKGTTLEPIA
# B1: eIF2Bγ subunit alone (natural protein)
# chain: MSIQAFVFCGKGSNLAPFTQPDFPFQTQNKDSTAATSGDKLNELVNSALDSTVINEFMQHSTRLPKALLPIGNRPMIEYVLDWCDQADFKEISVVAPVDEIELIESGLTSFLSLRKQQFELIYKALSNSNHSHHLQDPKKINFIPSKANSTGESLQKELLPRINGDFVILPCDFVTDIPPQVLVDQFRNRDDNNLAMTIYYKNSLDSSIDKKQQQKQKQQQFFTVYSENEDSERQPILLDVYSQRDVTKTKYLQIRSHLLWNYPNLTVSTKLLNSFIYFCSFELCQLLKLGPQSMSRQASFKDPFTGNQQQQNPPTTDDDEDRNHDDDDDYKPSATSIQPTYFKKKNDLILDPINCNKSLSKVFRDLSRRSWQHSKPREPIGIFILPNETLFIRANNLNAYMDANRFVLKIKSQTMFTKNIQIQSAAIGADAIVDPKCQISAHSNVKMSVLGTQANIGSRCRVAGSLLFPGVHLGDEVILENCIIGPMAKIGSKCKLSNCYIEGHYVVEPKNNFKGETLANVYLDEDEEDELIYDDSVIAGESEIAEETDSDDRSDEDSDDSEYTDEYEYEDDGLFER
# B2: eIF2Bɛ subunit alone (natural protein)
# chain: MAGKKGQKKSGLGNHGKNSDMDVEDRLQAVVLTDSYETRFMPLTAVKPRCLLPLANVPLIEYTLEFLAKAGVHEVFLICSSHANQINDYIENSKWNLPWSPFKITTIMSPEARCTGDVMRDLDNRGIITGDFILVSGDVLTNIDFSKMLEFHKKMHLQDKDHISTMCLSKASTYPKTRTIEPAAFVLDKSTSRCIYYQDLPLPSSREKTSIQIDPELLDNVDEFVIRNDLIDCRIDICTSHVPLIFQENFDYQSLRTDFVKGVISSDILGKHIYAYLTDEYAVRVESWQTYDTISQDFLGRWCYPLVLDSNIQDDQTYSYESRHIYKEKDVVLAQSCKIGKCTAIGSGTKIGEGTKIENSVIGRNCQIGENIRIKNSFIWDDCIIGNNSIIDHSLIASNATLGSNVRLNDGCIIGFNVKIDDNMDLDRNTKISASPLKNAGSRMYDNESNEQFDQDLDDQTLAVSIVGDKGVGYIYESEVSDDEDSSTEACKEINTLSNQLDELYLSDDSISSATKKTKKRRTMSVNSIYTDREEIDSEFEDEDFEKEGIATVERAMENNHDLDTALLELNTLRMSMNVTYHEVRIATITALLRRVYHFIATQTLGPKDAVVKVFNQWGLLFKRQAFDEEEYIDLMNIIMEKIVEQSFDKPDLILFSALVSLYDNDIIEEDVIYKWWDNVSTDPRYDEVKKLTVKWVEWLQNADEESSSEEE
# B3: eIF2Bγɛ subcomplex (catalytic subcomplex of eIF2B) (complex)
# chain 1: B1 chain
# chain 2: B2 chain
# Experiments:
# [1] = molecular target: eIF2 (yeast (Saccharomyces cerevisiae)) (UniProt P20459); experiment: pull-down; GDF assay (competition): 1 µg eIF2 or eIF2αP and 1 µg GST-eIF5 bound to glutathione sepharose beads 2 h at 4°C, washed, then challenged 2 h at 4°C with increasing concentrations of Flag-eIF2B complexes, subunits or eIF5-Flag; 30 mM HEPES, 100 mM KCl, 100 µM GDP, 5 mM DTT, 1 mM NaF, 2.5 mM MgCl2, 0.05% Triton X-100; bound eIF2 by immunoblot; fit y = 1 − [x/(x + IC50)]
# Rab9 = Rab9 (UniProt P51151); conditions: cited from earlier work
# [2] = molecular target: eIF5 (Saccharomyces cerevisiae) (UniProt P38431); conditions: cited from earlier work
# [3] = molecular target: eIF2 (yeast (Saccharomyces cerevisiae)) (UniProt P20459)
# [4] = molecular target: eIF2 (yeast (Saccharomyces cerevisiae)) (UniProt P20459); experiment: other; displacement of eIF2 from GST-eIF5 (GDF assay); conditions: complex; chains chain;chain;chain;chain
# eIF2 = molecular target: T1, eIF2; experiment: displacement of eIF2 from GST-eIF5 (GDF assay)
# [5] = molecular target: eIF2 (yeast (Saccharomyces cerevisiae)) (UniProt P20459); experiment: pull-down; GDF assay (competition): 1 µg eIF2 or eIF2αP and 1 µg GST-eIF5 bound to glutathione sepharose beads 2 h at 4°C, washed, then challenged 2 h at 4°C with increasing concentrations of Flag-eIF2B complexes, subunits or eIF5-Flag; 30 mM HEPES, 100 mM KCl, 100 µM GDP, 5 mM DTT, 1 mM NaF, 2.5 mM MgCl2, 0.05% Triton X-100; bound eIF2 by immunoblot; fit y = 1 − [x/(x + IC50)]; remark: listed apart in the source
# Sequence of eIF5 (Saccharomyces cerevisiae) (P38431 whole entry): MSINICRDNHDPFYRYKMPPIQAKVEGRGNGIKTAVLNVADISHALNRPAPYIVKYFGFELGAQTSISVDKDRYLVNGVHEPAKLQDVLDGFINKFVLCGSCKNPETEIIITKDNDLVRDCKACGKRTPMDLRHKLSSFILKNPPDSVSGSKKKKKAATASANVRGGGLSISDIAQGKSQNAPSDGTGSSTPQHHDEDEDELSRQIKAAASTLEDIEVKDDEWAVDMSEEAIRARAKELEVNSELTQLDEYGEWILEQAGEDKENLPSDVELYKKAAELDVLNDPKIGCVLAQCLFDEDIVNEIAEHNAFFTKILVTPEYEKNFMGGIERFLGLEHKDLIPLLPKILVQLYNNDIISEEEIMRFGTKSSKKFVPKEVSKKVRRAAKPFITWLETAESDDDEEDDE
# Sequence of Rab9 (P51151 2-201): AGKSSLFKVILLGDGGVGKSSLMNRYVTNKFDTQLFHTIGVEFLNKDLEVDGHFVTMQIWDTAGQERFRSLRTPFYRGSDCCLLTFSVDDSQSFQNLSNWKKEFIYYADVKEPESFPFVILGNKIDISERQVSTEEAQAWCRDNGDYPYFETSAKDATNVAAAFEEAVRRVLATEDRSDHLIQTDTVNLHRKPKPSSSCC
molecule,measurement,setting,value
Flag-tagged eIF5 (eIF5-Flag) (from UniProt P38431 1-405) (natural protein),IC50,[1],244 nM
GDIα (from UniProt P21856),Kd,Rab9,< 23 nM
eIF2 (from UniProt P20459),Kd,[2],23 nM
eIF2B-γG12V (mutant eIF2B complex) (from UniProt P14741 1-305; P32502 1-381; P09032 1-578; P12754 1-651; P32501 1-712),K1/2 of mutant eIF2B for [3H]GDP release from eIF2 prebound to eIF5 (coupled GDI–GDF–GEF assay; pair displaced: eIF2 and eIF5),[3],134 nM
eIF2B-γL480Q (mutant eIF2B complex) (from UniProt P14741 1-305; P32502 1-381; P09032 1-578; P12754 1-651; P32501 1-712),K1/2 of mutant eIF2B for [3H]GDP release from eIF2 prebound to eIF5 (coupled GDI–GDF–GEF assay; pair displaced: eIF2 and eIF5),[3],134 nM
"four-subunit eIF2B complex lacking the α subunit (eIF2Bβδγɛ), P32502 1-381; P12754 1-651; P09032 1-578; P32501 1-712",IC50,[4],25.7 nM
B1,IC50,eIF2,318 nM
B2,IC50,[5],215 nM
B3,IC50,eIF2,20 nM
